This is an account of results in patent publication US20220325000A1 (SUZHOU ALPHAMAB, published 2022).

For orientation: EC50 means the concentration at which the effect is half-maximal. Usually Kd stands for the equilibrium constant for the complex coming apart. By IC50 is commonly meant the point on the concentration scale where inhibition reaches its midpoint. A low value points to greater potency in that assay.

In experiment [1] the target is T1, hTFPI161-Chis (human, UniProt P10646 29-189, limits assumed).
T1 construct: also called human TFPI; not shown: C-terminal His tag ('Chis')
T1 sequence (looked up): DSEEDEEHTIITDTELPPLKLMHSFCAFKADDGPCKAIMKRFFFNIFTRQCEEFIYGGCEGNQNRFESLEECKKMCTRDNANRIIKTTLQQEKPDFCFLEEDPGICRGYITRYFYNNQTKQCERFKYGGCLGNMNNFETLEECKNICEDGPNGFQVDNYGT
In words: ELISA, hTFPI161 coated, anti-human IgG4-HRP, four-parameter fit. The protocol:
hTFPI161 protein was coated on the plate at 0.5 μg/well overnight at 4° C. After washing, the gradient dilution series of h7G6 antibody protein obtained in the above example was added, and incubated at 25° C±2° C. for 2 h. After washing, 1:2000 diluted Mouse Anti-Human IgG4 pFc′ antibody [HP 6023] (HRP) was added at 100 μL/well, and incubated at 25° C.±2° C. for 2 h. After washing, the development solution was added, and the absorbance was read at the wavelength of 450/650 nm. The software SotfMax Pro v5.4 was applied for data processing and mapping analysis, using four-parameter fitting, the binding curve of h7G6 antibody to hTFPI161 and EC50 value were obtained, which reflects the affinity of the antibody for hTFPI161.

Experiment [2] concerns the target T1, hTFPI161-Chis. In words: BLI, antibody on Protein A biosensor, hTFPI161-Chis 1.875-30 nM, 1:1 model; batch 180727DS. The procedure:
(§1) In this experiment, the affinity of h7G6 for human TFPI was detected based on Bio-Layer Interferometry (BLI) technology. K2 instrument of Fortibio was used. Firstly, KN057 was diluted to […] and immobilized on Protein A biosensor (model 18-5010), then hTFPI161-Chis was diluted to 30 nM, 15 nM, 7.5 nM, 3.75 nM and 1.875 nm to combine with h7G6, respectively, and the binding signals with different intensities could be detected. The results were fitted using 1:1 model to calculate the equilibrium constant (KD) of the sample.

In experiment [3] the target is T1, hTFPI161-Chis. Put plainly: BLI, antibody on Protein A biosensor, hTFPI161-Chis 1.875-30 nM, 1:1 model; batch 180820DS. The protocol: as §1
A general note: Biolayer interferometry detects binding as a change in optical thickness at a sensor tip.

In experiment [4] the target is T1, hTFPI161-Chis. Put plainly: competitive ELISA, FXa coated (competitor), 50 ng/mL hTFPI161, anti-His-HRP, four-parameter fit. The procedure: FXa Protease was coated on the plate at 0.2 μg/well overnight at 4° C., after blocking with BSA, the gradient dilution series of hu7G6 antibody protein obtained from the above example was added at 100 uL/well (50 ng/mL hTFPI161 was contained in the dilution), and the reaction was carried out at room temperature for 1 hour. After washing, 1:1500 diluted Mouse THETM His Tag Antibody [HRP] mAb was added, and the reaction was carried out at room temperature for 1 hour. After washing, the development solution was added, and the absorbance was read at the wavelength of 450/650 nm.
The software SotfMax Pro v5.4 was applied for data processing and mapping analysis, using four-parameter fitting, the inhibition curve of h7G6 antibody for FXa-TFPI and EC50 value were obtained. The results were shown in FIG. 3, in which the ordinate was OD450 and the abscissa is the concentration of h7G6 antibody protein (ng/mL); and Hu7G62-v2 antibody protein was effective in inhibiting the interaction between FXA and TFPI.

Experiment [5] deals with T1, hTFPI161-Chis. Put plainly: BLI, antibody on Protein A biosensor, hTFPI161-Chis 1.875-30 nM, 1:1 model; mean of three batches; average of three batches. The procedure:
as §1

The target in experiment [6] is T2, hTFPI antigen (human).
T2 construct: Self-made hTFPI used in the hybridoma screens; It may be the same protein as hTFPI161; also called human TFPI; hTFPD
Put plainly: ELISA, subclone supernatant, hTFPI, OD450. Background: ELISA stands for enzyme-linked immunosorbent assay.

Experiment [7] addresses T2, hTFPI antigen. In words: competitive ELISA, FXa coated (competitor), supernatant diluted 10x. The procedure: (§2) Coat with 2μg/mL FXA Protease (Neb, batch No. 0941404), after blocking with BSA, the same diluted supernatant of TFPI hybridoma cells and 50 ng/mL hTFPD (batch No. TE20140825, self-made) were added for complete incubation, followed by 1:1500 diluted mouse THETM His Tag Antibody [HRP] mAb (GenScript, batch No. 14C000744), after development by TMB, 1 M H2SO4 stop solution was added to stop developing and the value was read on the microplate reader. Using 650 nm as the reference wavelength, the OD values were read at 450 nm and 650 nm. […] The lower the OD value, the better the inhibition of the anti-TFPI antibody.
(§3) Afterwards, the supernatant of 31 7G6 subcloned cells was performed with the inhibition experiment at different dilution ratios, and the experimental method was the same as 1.2.

The target of experiment [8] is T2, hTFPI antigen. In words: competitive ELISA, FXa coated (competitor), supernatant diluted 100x. The protocol: as §2, §3

B1: Hu7G62-v2 (antibody, human IgG4 S228P, kappa, V domains shown)
VH: QVQLVQSGAEVKKPGASVKVSCKASGYSFTSYGISWVKQAPGQGLEWIGEIYPRSTNTYYNEKFMGKATLTADKSSSTAYMELSSLRSEDTAVYYCARESFYGDYGAMDFWGQGTLVTVSS
VL: DIVMTQSPLSLPVTPGEPASISCKSSQSLLESDGKTYLNWYLQKPGQSPQLLIYLVSKLDSGVPDRFSGSGSGTDFTLKISRVEAEDVGVYYCSQGTHFPRTFGQGTKVEIKR
notes: also called hu7G6-2v2-G4ws; h7G6 antibody
B1 displayed an EC50 with hTFPI161-Chis [1] of 0.0419 µg/mL. Also, the equilibrium dissociation constant (Kd) with hTFPI161-Chis [2] turned out to be 1.32 nM; with hTFPI161-Chis [3], 1.47 nM; with hTFPI161-Chis [5] it was 1.37 nM. Besides, in the experiment with hTFPI161-Chis [4], the IC50 came out at 0.222 µg/mL.

B2: TFPI-7G6-1C12 (antibody, V domains shown)
VH: QVQLQQSGAELARPGASVKLSCKASGYSFTSYGISWVKQRTGQGLEWIGEIYPRSTNTYYNEKFMGKATLTADKSSSTAFMELRSLTSEDSAVYFCARESFYGDYGAMDFWGQGASVTVSS
VL: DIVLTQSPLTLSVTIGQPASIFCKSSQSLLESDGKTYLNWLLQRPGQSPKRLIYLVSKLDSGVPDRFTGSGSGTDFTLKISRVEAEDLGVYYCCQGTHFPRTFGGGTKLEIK
notes: Subclone supernatant
Molecule B2 yielded an OD with hTFPI antigen [6] of 1.24. In addition, the Inhibition % in the experiment with hTFPI antigen [7] was 95.2%; with hTFPI antigen [8], 57.9%.

B3: TFPI-7G6-5F11 (antibody, V domains shown)
VH: B2 VH
VL: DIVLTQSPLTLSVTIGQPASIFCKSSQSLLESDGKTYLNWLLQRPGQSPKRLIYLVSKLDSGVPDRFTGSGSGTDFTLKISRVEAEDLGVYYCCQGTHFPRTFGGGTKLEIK
notes: Subclone supernatant
B3 showed an OD with hTFPI antigen [6] of 1.35. For the same molecule, the Inhibition % in the experiment with hTFPI antigen [7] came to 95.1%; with hTFPI antigen [8], 55%.

B4: TFPI-7G6-5A10 (antibody, V domains shown)
VH: B2 VH
VL: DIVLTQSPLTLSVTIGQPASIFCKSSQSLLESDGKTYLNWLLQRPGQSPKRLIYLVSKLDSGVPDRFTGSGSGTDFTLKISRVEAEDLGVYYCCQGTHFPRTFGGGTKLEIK
notes: Subclone supernatant
Molecule B4 came in with an OD with hTFPI antigen [6] of 1.25. Moreover, the values for the Inhibition % with hTFPI antigen [7] and in the experiment with hTFPI antigen [8] were 95.9% and 62.1%, respectively.

B5: TFPI-7G6-2G8 (antibody, V domains shown)
VH: B2 VH
VL: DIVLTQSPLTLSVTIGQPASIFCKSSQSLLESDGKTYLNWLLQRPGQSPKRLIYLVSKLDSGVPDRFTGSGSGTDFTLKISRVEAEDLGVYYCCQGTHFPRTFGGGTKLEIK
notes: Subclone supernatant
Molecule B5 registered an OD with hTFPI antigen [6] of 1.27. The values for the Inhibition % in the experiment with hTFPI antigen [7] and in the experiment with hTFPI antigen [8] were 95.9% and 62.7%, respectively.
